Three substances from patent publication US7358088B2, “Peptides and compositions which modulate apoptosis” (ImmunoGen, Inc., priority 1995, dated 2008) can be followed below.

Ends that are not written are not given here. * marks the point of attachment. Biotin = O=C1N[C@H]2[C@H](CS[C@H]2CCCCC(=O)*)N1

One data set concerns the target T1, Bax (Homo sapiens, UniProt Q07812).
T1 construct: host or cells: coupled transcription/translation in rabbit reticulocyte lysate
As to the kind of experiment: GST-PEM in vitro binding of 35S labeled Bax. The settings on record: GST fusion, in vitro translated 35S labeled Bax; GST alone as control. The source says: (§1) Complexes were captured with glutathione-agarose beads, washed, and bound proteins detected by polyacrylamide gel electrophoresis and autoradiography. […] Thus, the GD domain can mediate interaction not only with Bcl-xL but also Bak and Bax.
(§2) Complexes were captured with glutathione-agarose beads, washed, and bound proteins detected by polyacrylamide gel electrophoresis and autoradiography.

The target in the next data set is Bcl-xL (Homo sapiens, UniProt Q07817). Nature of the data set: GST-PEM in vitro binding of 35S labeled Bcl-xL. On the set-up: made in house; host or cells: E. coli. The following applies: GST fusion, in vitro translated 35S labeled Bcl-xL; GST alone as control.
Excerpt: as §1, §2

The target in a further data set is T2, Bak (Homo sapiens, UniProt Q16611).
T2 construct: diminished relative to full length Bak; host or cells: coupled transcription/translation in rabbit reticulocyte lysate
T2 sequence (Q16611 1-211): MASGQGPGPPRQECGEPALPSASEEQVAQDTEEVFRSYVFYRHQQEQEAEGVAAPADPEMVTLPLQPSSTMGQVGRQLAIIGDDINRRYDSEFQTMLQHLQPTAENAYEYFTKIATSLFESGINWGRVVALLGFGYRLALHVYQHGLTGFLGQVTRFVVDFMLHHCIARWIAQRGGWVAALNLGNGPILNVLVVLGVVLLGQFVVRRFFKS
Nature of the data set: GST-PEM in vitro binding of 35S labeled Bak. The settings on record: GST fusion, in vitro translated 35S labeled Bak; GST alone as control.
Excerpt: as §1, §2

The target of a further data set is T3, Bip1a (Homo sapiens, UniProt Q13323).
T3 construct: host or cells: coupled transcription/translation in rabbit reticulocyte lysate
T3 sequence (Q13323 1-160): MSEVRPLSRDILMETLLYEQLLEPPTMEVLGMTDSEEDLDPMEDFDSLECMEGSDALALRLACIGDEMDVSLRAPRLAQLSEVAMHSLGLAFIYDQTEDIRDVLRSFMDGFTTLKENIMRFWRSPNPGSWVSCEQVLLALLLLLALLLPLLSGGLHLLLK
Nature of the data set: GST-PEM in vitro binding of 35S labeled Bip1a. The settings on record: GST fusion, in vitro translated 35S labeled Bip1a.
Excerpt: as §1, §2

Data set [1] concerns the target T4, Bcl-xL/Bak GD domain interaction (Homo sapiens, UniProt Q07817).
T4 construct: made in house; host or cells: E. coli
Nature of the data set: High through-put screening assay 2: GST-Bcl-xL binding to biotinylated Bak GD peptide on neutravidin wells, ELISA. As to the method:
An assay was developed to screen for compounds that block the interaction between the Bcl-2 homologs, Bcl-xL and Bak. A synthetic peptide corresponding to the Bak GD binding domain ([…] [SEQ ID NO: 35]) was biotinylated and bound to wells coated with neutravidin. […] Peptides encompassing the GD domain from various Bcl-2 family members were tested for their ability to block GD domain-mediated interactions in this assay. Peptides tested: Bcl-w [SEQ ID NO: 39] […] ([…]), Bak [SEQ ID NO: 36]([…]), Bak-15 [SEQ ID NO: 37] ([…]), Bak-15L78A [SEQ ID NO: 38] ([…]), control (no peptide).
In a modification of the high through-put screening assay 1 described herein, wells are coated with an avidin derivative, to which a biotinylated peptide/protein is bound. A GST-fusion protein that can interact with the biotinylated peptide/protein is added in the presence or absence of test compounds. The plates are incubated and then unbound GST-fusion protein is removed by washing. The amount of GST-fusion protein specifically bound to the tethered peptide/protein is determined by ELISA using an anti-GST antibody conjugated to horse radish peroxidase. Compounds which block the interaction between the biotinylated peptide/protein and the GST-fusion protein cause a decrease in the ELISA signal.
In a specific example, an assay was developed to screen for compounds that block the interaction between the Bcl-2 homologs, Bcl-xL and Bak. A biotinylated Bak GD domain peptide (amino acid residues 71-89; N-biotinylated […] [SEQ ID NO: 35]) was bound to wells coated with neutravidin. […] Using this assay, peptides from Bcl-2 family members were identified which block the Bcl-xL/Bak GD domain interaction (FIG. 10).
On the technique in general: ELISA stands for enzyme-linked immunosorbent assay.

A further data set has as its target T5, GST-Bcl-xL (Homo sapiens, UniProt Q07817).
T5 construct: made in house; host or cells: E. coli
As to the kind of experiment: High through-put screening assay 1: biotinylated GD peptide on GST-Bcl-xL-coated multiwell plates, ELISA. It counts as binding. The settings on record: ELISA with streptavidin-conjugated HRP, 4° C. for 1 hour. As to the method: Multiwell plates (Nunc Maxisorp) were coated with GST-Bcl-xL and blocked with 1% normal goat serum in PBS. A N-biotinylated GD peptide corresponding to Bak (71-89; […] [SEQ ID NO: 35]) was added and the plates were incubated at 4° C. for 1 hour. The plates were washed to remove unbound GD peptide and the amount of bound peptide was determined by ELISA using streptavidin-conjugated horse radish peroxidase. Coating with GST-Bcl-xL was omitted in the control wells.
According to the present example, multiwell plates coated with GST-Bcl-xL were incubated with a labeled GD domain peptide probe. […] More specifically, wells in a multiwell plate were coated without (control) or with GST-Bcl-xL and then incubated with a GD domain peptide derived from the Bcl-2 homolog Bak (amino acid residues 71-89; […] [SEQ ID NO: 35]). The peptide was labeled by biotinylation at the amino terminus to allow detection and quantitation of bound peptide using streptavidin-conjugated horse radish peroxidase (HRP) in a standard ELISA procedure. […] Compounds that antagonize GD domain-mediated interactions can be conveniently identified using this assay by adding candidate compounds to the wells during the binding step. Those compounds that disrupt the interaction of the biotinylated GD domain peptide with GST-Bcl-xL will cause a decrease in the ELISA signal.

Data set [2] has as its target T6, interaction of GST-Bcl-xL and Bak (Homo sapiens, UniProt Q07817).
T6 construct: made in house; host or cells: GST-Bcl-xL: E. coli; Bak: rabbit reticulocyte lysate (Promega)
Nature of the data set: In vitro binding assay: inhibition of GST-Bcl-xL binding to 35S-methionine-labeled Bak. The following applies: peptide mixed with GST-Bcl-xL 30 minutes prior to addition to the binding assay. On the procedure:
An in vitro binding assay as described herein in Example A.3. was used to measure the inhibition of GST-Bcl-xL binding to in vitro translated ^35Met-labeled Bak by a 20-amino acid peptide derived from the Bak GD domain (70-89; […] [SEQ ID NO: 36]). The peptide was mixed with the GST-Bcl-xL protein 30 minutes prior to addition to the binding assay. The concentration of peptide in the binding assay is indicated. Control assay contains no peptide.
The beads were removed by centrifugation and the supernatants were incubated with GST or GST-Bcl-xL (final concentration […]) at 4° C. for 1 hour. The GST fusion proteins and any interacting proteins were recovered by incubation for 1 hour with an additional […] of GSH-agarose beads. The beads were washed twice with NP-40 lysis buffer followed by two washes with NP-40 lysis buffer without NP-40. Proteins were eluted from the beads by incubation in SDS-PAGE sample buffer at 100° C. for 5 min and loaded onto 4-20% SDS-polyacrylamide gels. Following electrophoresis, gels were fixed and incubated in a fluorography enhancing solution (Amplify; Amersham). […]
GST-Bcl-xL, or GST-Bcl-2 is incubated with a labeled GD domain-containing protein in the presence of a test compound. Resulting protein complexes are captured on GSH-agarose beads and the amount of labeled interacting protein is measured. […]

T4 sequence (Q07817 whole entry, the tested form may be a part): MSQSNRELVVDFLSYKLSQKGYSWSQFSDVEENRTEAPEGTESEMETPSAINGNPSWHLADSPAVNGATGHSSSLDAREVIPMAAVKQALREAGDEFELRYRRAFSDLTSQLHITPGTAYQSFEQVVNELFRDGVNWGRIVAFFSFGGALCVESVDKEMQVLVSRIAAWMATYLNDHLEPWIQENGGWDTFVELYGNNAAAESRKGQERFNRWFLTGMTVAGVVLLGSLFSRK
T5 sequence (Q07817 whole entry): as the sequence (Q07817 whole entry, the tested form may be a part) above
Bcl-xL, sequence (Q07817 whole entry, the tested form may be a part): as above
T6 sequence (Q07817 whole entry): as the sequence (Q07817 whole entry, the tested form may be a part) above
T1 sequence (Q07812 whole entry): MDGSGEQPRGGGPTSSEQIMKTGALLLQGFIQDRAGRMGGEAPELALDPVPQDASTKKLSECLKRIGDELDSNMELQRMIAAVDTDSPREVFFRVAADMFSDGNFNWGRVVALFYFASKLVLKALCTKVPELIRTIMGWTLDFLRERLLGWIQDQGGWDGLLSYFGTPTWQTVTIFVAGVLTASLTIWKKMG

Regarding “GST-PEM: portion of Bak (PEM, residues 58-103) encompassing the GD domain fused to GST, bacterially expressed”, the “interaction with Bax (heterodimerization)” value with Bax is “interact specifically”. Moreover, the “interaction with Bcl-xL” value with Bcl-xL is on record as “interact specifically”. Besides, the “interaction with Bak (homodimerization)” value with Bak is “interact specifically”. Besides, in the data set with Bip1a, the “interaction with Bip1a” value is on record as “does not interact”.
In the case of “MGQVGRQLAIIGDDINRRY (Biotin-MGQVGRQLAIIGDDINRRY) [SEQ ID NO: 35, Bak GD domain peptide, amino acid residues 71-89, biotinylated at the amino terminus]”, the “binding of GST-Bcl-xL to the tethered biotinylated peptide” value in data set [1] (peptide bound to neutravidin-coated wells, ELISA with anti-GST-HRP) is given as “bind specifically”. In addition, in the data set with GST-Bcl-xL, the “binding of biotinylated peptide to GST-Bcl-xL-coated wells” value is “specifically interacts in a concentration-dependent manner”.
With “TMGQVGRQLAIIGDDINRRY [Bak peptide, Bak GD domain peptide, amino acid residues 70-89]”, the “inhibition of Bcl-xL/Bak GD domain binding” value in data set [1] (competing peptide added, ELISA signal) is given as “concentration-dependent inhibition of binding”. For the same substance, the “inhibition of the interaction of GST-Bcl-xL and 35S-methionine-labeled Bak” value in data set [2] is listed as “inhibition of the interaction”.
